Legend:
[1] = molecular target: actin filaments (F-actin) from rabbit skeletal muscle, phalloidin-stabilized (rabbit) (UniProt P68135); test: co-sedimentation
[2] = molecular target: MYO19-1IQ (N-terminal FLAG-tagged human MYO19, motor domain and one IQ motif, amino acids 2-787) (human) (UniProt Q96H55); test: co-purification

Substance | Kd [1] | fraction bound at 5 μM actin without ATP [1] | stoichiometry N (CaM/MYO19-1IQ) [2]
MYO19-1IQ with bound calmodulin light chain (from UniProt Q96H55-1 2-787; P0DP23 1-149) (complex) | 1.2 µM | 0.8 | 
calmodulin (from UniProt P0DP23 1-149) (natural protein) |  |  | 1.1

Source: PMC3927398
